Assay results reported in article PMC4755285 (Journal of biomolecular screening, 2015).
Like-named read-outs stand apart in the source and are kept apart here. Ends that are not written are not given here.

Legend:
Test in all cases: fluorescence polarisation
[1] = target: FITC labeled HCN1 peptide (C-terminal 11 amino acids of HCN1)
[2] = target: FITC labeled HCN2 peptide (C-terminal 11 amino acids of HCN2)
[3] = target: FITC labeled HCN3 peptide (C-terminal 11 amino acids of HCN3)
[4] = target: FITC labeled HCN4 peptide (C-terminal 11 amino acids of HCN4)
TRIP8b(241-602) [5] = target: TRIP8b(241-602)
TRIP8b(241-602) [6] = target: TRIP8b(241-602); remark: listed apart in the source
TRIP8b(241-602) [7] = target: TRIP8b(241-602); remark: listed apart in the source
TRIP8b(241-602) [8] = target: TRIP8b(241-602); remark: listed apart in the source
[9] = target: T1, His tagged full length TRIP8b (1b-2) isoform
T1 chain: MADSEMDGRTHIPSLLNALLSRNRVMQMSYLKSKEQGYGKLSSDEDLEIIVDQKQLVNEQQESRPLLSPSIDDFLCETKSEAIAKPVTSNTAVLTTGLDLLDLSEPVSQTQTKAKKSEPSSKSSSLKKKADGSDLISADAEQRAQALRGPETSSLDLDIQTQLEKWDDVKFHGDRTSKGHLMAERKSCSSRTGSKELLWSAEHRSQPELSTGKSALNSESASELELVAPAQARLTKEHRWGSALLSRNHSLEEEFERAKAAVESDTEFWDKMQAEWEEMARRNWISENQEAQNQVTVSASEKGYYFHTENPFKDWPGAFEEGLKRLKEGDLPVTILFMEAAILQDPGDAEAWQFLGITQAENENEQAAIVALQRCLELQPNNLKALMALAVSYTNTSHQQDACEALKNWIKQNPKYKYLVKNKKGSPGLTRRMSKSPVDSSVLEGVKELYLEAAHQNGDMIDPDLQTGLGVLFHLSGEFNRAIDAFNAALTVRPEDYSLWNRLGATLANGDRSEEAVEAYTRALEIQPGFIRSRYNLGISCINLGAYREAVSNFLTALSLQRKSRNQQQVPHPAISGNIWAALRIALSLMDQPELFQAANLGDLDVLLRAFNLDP

TRIP8b(241-602) (domain or fragment)
Kd [1]: 1230 nM
fluorescence polarisation without competitor (mP) [1]: 224 mP
Kd [2]: 910 nM
Kd [3]: 10200 nM
Kd [4]: 810 nM

B1: unlabeled HCN1 peptide (peptide)
peptide: DAEKPRFASNL
IC50 (TRIP8b(241-602) [5]): 890 nM
IC50 (TRIP8b(241-602) [6]): 700 nM
IC50 (TRIP8b(241-602) [7]): 1770 nM
IC50 (TRIP8b(241-602) [8]): 1600 nM

B2: unlabeled HCN4 peptide (peptide)
peptide: EPVRSKLPSNL
IC50 (TRIP8b(241-602) [6]): 1930 nM

B3: FITC labeled HCN1 peptide (C-terminal 11 amino acids of HCN1) (peptide)
peptide: DAEKPRFASNL
modifications: also: FITC label, position not given here
Kd (TRIP8b(241-602) [6]): 800 nM
Kd [9]: 1030 ± 20 nM

B4: unlabeled HCN2 peptide (peptide)
peptide: DSARSRLSSNL
IC50 (TRIP8b(241-602) [6]): 760 nM
